Source: article PMC10411625, “Rationally designed stapled peptides allosterically inhibit PTBP1–RNA-binding” (Chemical Science, 2023)

Assay: circular dichroism
Conditions: 20 mM sodium phosphate, 10 mM NaF; pH 8; 20 °C; 50 uM
With `CC(=O)N[C@@H](CC(N)=O)C(=O)N[C@@H](CCC(N)=O)C(=O)N[C@@]1(C)CCCC=CCCC[C@]2(CCCC=CCCC[C@](C)(C(=O)N[C@H](C(=O)N[C@@H](CC(N)=O)C(N)=O)C(C)C)NC(=O)[C@H](CCC(N)=O)NC(=O)[C@H](CC(C)C)NC(=O)[C@H](C)NC2=O)NC(=O)[C@H](CCC(N)=O)NC(=O)[C@H](C)NC(=O)[C@H](CCCNC(=N)N)NC1=O` the helicity was 100%.
With `CC(=O)N[C@@H](CC(N)=O)C(=O)N[C@@H](CCC(N)=O)C(=O)N[C@@]1(C)CCCC=CCCC[C@]2(CCCC=CCCC[C@](C)(C(=O)N[C@H](C(=O)N[C@@H](CC(=O)O)C(N)=O)C(C)C)NC(=O)[C@H](CCC(N)=O)NC(=O)[C@H](CC(C)C)NC(=O)[C@H](C)NC2=O)NC(=O)[C@H](CCC(N)=O)NC(=O)[C@H](C)NC(=O)[C@H](CCCNC(=N)N)NC1=O` the helicity was 98.2%.
For `CC(=O)N[C@@H](CC(N)=O)C(=O)N[C@@H](CCC(N)=O)C(=O)N[C@@]1(C)CCCC=CCCC[C@]2(CCCC=CCCC[C@](C)(C(=O)N[C@H](C(=O)N[C@@H](CC(N)=O)C(N)=O)C(C)C)NC(=O)[C@H](CCC(N)=O)NC(=O)[C@H](CC(C)C)NC(=O)[C@H](C)NC2=O)NC(=O)[C@H](CCC(N)=O)NC(=O)[C@H](C)NC(=O)[C@H](CCNC(=N)N)NC1=O`, the helicity was 100%.
For `CC(=O)N[C@@H](CC(N)=O)C(=O)N[C@@H](CCC(N)=O)C(=O)N[C@@]1(C)CCCCCCCC[C@@](C)(C(=O)N[C@@H](C)C(=O)N[C@@H](CC(C)C)C(=O)N[C@@H](CCC(N)=O)C(=O)N[C@@H](C)C(=O)N[C@H](C(=O)N[C@@H](CC(N)=O)C(N)=O)C(C)C)NC(=O)[C@H](CCC(N)=O)NC(=O)[C@H](C)NC(=O)[C@H](CCCNC(=N)N)NC1=O`, the helicity was 92.3%.
Work on `CC(=O)N[C@H](C(=O)N[C@@H](CCC(N)=O)C(=O)N[C@@]1(C)CCCC=CCCC[C@]2(CCCC=CCCC[C@](C)(C(=O)N[C@H](C(=O)N[C@@H](CC(N)=O)C(N)=O)C(C)C)NC(=O)[C@H](CCC(N)=O)NC(=O)[C@H](CC(C)C)NC(=O)[C@H](C)NC2=O)NC(=O)[C@H](CCC(N)=O)NC(=O)[C@H](C)NC(=O)[C@H](CCCNC(=N)N)NC1=O)C(C)C` yielded a helicity of 100%.
For `CC(=O)N[C@@H](CC(N)=O)C(=O)N[C@@H](CCC(N)=O)C(=O)N[C@@]1(C)CCCC=CCCC[C@]2(CCCC=CCCC[C@](C)(C(=O)N[C@H](C(=O)N[C@@H](CC(N)=O)C(N)=O)C(C)C)NC(=O)[C@H](CCC(N)=O)NC(=O)[C@H](CC(N)=O)NC(=O)[C@H](C)NC2=O)NC(=O)[C@H](CCC(N)=O)NC(=O)[C@H](C)NC(=O)[C@H](CCCNC(=N)N)NC1=O`, the helicity was 100%.
Molecule Ac-NQARAQAALQAVNR-NH2 has a helicity of 20.2%.
`CC(=O)N[C@@H](CC(N)=O)C(=O)N[C@@H](CCC(N)=O)C(=O)N[C@@H](C)C(=O)N[C@@H](CCCNC(=N)N)C(=O)N[C@@H](C)C(=O)N[C@@]1(C)CCCCCCCC[C@@](C)(C(=O)N[C@@H](C)C(=O)N[C@H](C(=O)N[C@@H](CC(N)=O)C(N)=O)C(C)C)NC(=O)[C@H](CC(C)C)NC(=O)[C@H](C)NC(=O)[C@H](C)NC1=O` gave a helicity of 77.3%.
`CC(=O)N[C@@H](CC(N)=O)C(=O)N[C@@H](CCC(N)=O)C(=O)N[C@@H](C)C(=O)N[C@@H](CCCNC(=N)N)C(=O)N[C@@H](C)C(=O)N[C@@H](CCC(N)=O)C(=O)N[C@@]1(C)CCCCCCCC[C@@](C)(C(=O)N[C@H](C(=O)N[C@@H](CC(N)=O)C(N)=O)C(C)C)NC(=O)[C@H](CCC(N)=O)NC(=O)[C@H](CC(C)C)NC(=O)[C@H](C)NC1=O` showed a helicity of 57.8%.
